The target in experiment [1] is T1, human CLDN18.2 (human, UniProt P56856). In words: ELISA, after 14 days at 37C. In general terms: In an ELISA, binding on a coated surface is turned into a signal by an enzyme label.
Experiment [2] has as its target T1, human CLDN18.2. In words: ELISA.
The target in experiment [3] is T1, human CLDN18.2. The experiment is described as follows: ELISA. This is another data set of the same source.

B1: LB321 CLDN18.2 arm (antibody)
chain 1: QVQLVQSGAEVKKPGSSVKVSCKASGYAFSNYLIEWVKQAPGQGLEWIGLINPGSGGTNYNEKFKGKATITADKSTSTAYMELSSLRSEDTAVYYCARVYYGNSFAYWGQGTLVTVSS
chain 2: DIVMTQSPDSLAVSLGERATISCKSSQSLLNSGNQKNYLTWYQQKPGQPPKLLIYWASTRESGVPDRFSGSGSGTDFTLTISSLQAEDVAVYYCQNDYFYPFTFGQGTKLEIK
The term EC50 denotes the midpoint of the concentration-response curve. A high value points to weaker potency. For the molecule B1, the values for the EC50 with human CLDN18.2 [1], with human CLDN18.2 [2] and in the experiment with human CLDN18.2 [3] were 10100 pM, 990 pM and 366 pM, respectively.

Values taken from US11912763 (dated 2024).
